Values joined by “and” are separate entries in the source; they are usually repeats but may differ in a detail not shown here. Equal values may be shown once.
Legend:
[1] = target: T1, recombinant human CAP1 (human), Q01518; assay: ELISA; conditions: remark: other sources report otherwise
T1 chain: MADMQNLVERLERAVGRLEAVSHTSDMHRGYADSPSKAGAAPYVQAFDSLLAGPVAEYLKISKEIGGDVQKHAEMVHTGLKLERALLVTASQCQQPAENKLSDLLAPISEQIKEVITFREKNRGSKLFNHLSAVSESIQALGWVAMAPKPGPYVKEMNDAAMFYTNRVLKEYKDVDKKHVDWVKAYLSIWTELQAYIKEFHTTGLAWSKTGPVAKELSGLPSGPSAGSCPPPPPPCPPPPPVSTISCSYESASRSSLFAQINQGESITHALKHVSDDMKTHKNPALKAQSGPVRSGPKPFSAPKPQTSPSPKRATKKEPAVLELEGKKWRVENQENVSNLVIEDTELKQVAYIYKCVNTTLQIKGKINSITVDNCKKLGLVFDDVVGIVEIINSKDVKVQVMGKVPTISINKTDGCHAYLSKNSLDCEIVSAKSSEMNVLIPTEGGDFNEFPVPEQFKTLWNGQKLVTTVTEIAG

[2] = target: T2, adenovirus-delivered human resistin (human), Q9HD89; assay: non-reducing SDS gel; conditions: remark: other sources report otherwise
T2 chain: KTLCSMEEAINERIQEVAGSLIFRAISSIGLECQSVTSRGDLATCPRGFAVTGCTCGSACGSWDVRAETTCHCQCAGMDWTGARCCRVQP

B1: non-Fc-conjugated recombinant human resistin protein, Q9HD89 19-108 (ligand)
chain: KTLCSMEEAINERIQEVAGSLIFRAISSIGLECQSVTSRGDLATCPRGFAVTGCTCGSACGSWDVRAETTCHCQCAGMDWTGARCCRVQP
Work on B1 yielded an EC50 [1] of 784 nM.

B2: adenovirus-delivered human resistin, Q9HD89 19-108 (ligand)
chain: KTLCSMEEAINERIQEVAGSLIFRAISSIGLECQSVTSRGDLATCPRGFAVTGCTCGSACGSWDVRAETTCHCQCAGMDWTGARCCRVQP
B2 was tested, and the stoichiometry N [2] was 3 and 2.

From paper PMC3969988
